The target of test [1] is embryonic breast muscle myosin isolated from d15 chick embryos (chicken) (UniProt P02565).
Test [2] addresses embryonic myosin isolated from primary culture myotubes (chicken) (UniProt P02565).

Turning to “F-actin (from UniProt P68139 1-377) (natural protein)”, the actin filament velocity, in vitro motility assay in test [1] worked out at 3.8 um/s; in test [2], 3.1 um/s.

The record behind these values is PMC2120956.
